From patent EP2074145B1 come the findings set out here.

This assay deals with Amyloid Beta (antigen of the Amyloid Beta ELISA) (UniProt P05067). In words: Amyloid Beta ELISA; purified antibodies from stable NS0 cell lines.
Sequence of Amyloid Beta (antigen of the Amyloid Beta ELISA) (P05067 672-713 limits assumed): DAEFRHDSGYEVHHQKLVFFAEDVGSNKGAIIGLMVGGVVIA

B1: humanized antibody C2 HuVH2/HuVK3 (antibody, human IgG4 S228P, kappa, V domains shown)
VH: EVQLVESGGGLVQPGGSLRLSCAASGFTFSSYGMSWVRQAPGKGLEWVASINSNGGSTYYPDSVKGRFTISRDNAKNSLYLQMNSLRAEDTAVYYCASGDYWGQGTTVTVSS
VL: DIVMTQSPLSLPVTPGEPASISCRSSQSLVYSNGDTYLHWYLQKPGQSPKLLIYKVSNRFSGVPDRFSGSGSGTDFTLKISRVEAEDVGVYYCSQSTHVPWTFGQGTKVEIKR
As for B1, the fold reduction of binding activity compared to chimeric control antibody C2 ChVHAF/ChVK was determined as 2 fold.
